Drawing on PMC5608031, this text covers Km for one protein.

What all share (assay type): biochemical, Homo sapiens
Conditions in all cases: PAPS

Substrate in series [1]: O=c1c(-c2ccc(O)cc2)coc2cc(O)cc(O)c12
Description: purified protein.

Substrate in series [2]: O=c1cc(-c2ccccc2)oc2cc(O)cc(O)c12
Nature of the series: purified protein.

Substrate in series [3]: O=c1cc(-c2ccc(O)cc2)oc2ccc(O)cc12
Description: purified protein.

Substrate in series [4]: CC(C)(c1ccc(O)cc1)c1ccc(O)cc1
Description: purified protein.

Substrate in series [5]: O=c1cc(-c2ccc(O)cc2)oc2cc(O)cc(O)c12
Description: purified protein.

Substrate in series [6]: O=c1c(-c2ccc(O)cc2)coc2cc(O)ccc12
Description: purified protein.

Substrate in series [7]: Oc1cccc2ccccc12
Description: radiolabeled sulfonation assay, Km.

B1: human cytosolic sulfotransferase 1C4 (hSULT1C4) (Homo sapiens) (protein)
chain: MALHDMEDFTFDGTKRLSVNYVKGILQPTDTCDIWDKIWNFQAKPDDLLISTYPKAGTTWTQEIVELIQNEGDVEKSKRAPTHQRFPFLEMKIPSLGSGLEQAHAMPSPRILKTHLPFHLLPPSLLEKNCKIIYVARNPKDNMVSYYHFQRMNKALPAPGTWEEYFETFLAGKVCWGSWHEHVKGWWEAKDKHRILYLFYEDMKKNPKHEIQKLAEFIGKKLDDKVLDKIVHYTSFDVMKQNPMANYSSIPAEIMDHSISPFMRKGAVGDWKKHFTVAQNERFDEDYKKKMTDTRLTFHFQF
Regarding B1, the Km in the series “purified protein [1]” amounted to 3.3 ± 0.3 µM; in “purified protein [2]”, 0.9 ± 0.4 µM; in the series “purified protein [3]”, 10.1 ± 2.1 µM; in “purified protein [4]”, 32.8 ± 3.2 µM; in “purified protein [5]” it was 1.7 ± 1.0 µM; in the series “purified protein [6]”, 10.5 ± 1.1 µM. Also, the Km in series [7] worked out at 1.1 ± 0.2 µM.

One may read the Km as the concentration of substrate that gives half-maximal velocity.
